Assay [1] deals with T1, biotinylated murine gp130_(P496L) (D1-D6) with C-terminal biotin acceptor peptide and hexa-histidine tag (murine, UniProt Q00560 23-617, P496L, biotin on the C-terminal biotin acceptor peptide (in vitro, BirA)). The assay is described as follows: SPR. For orientation: SPR reads the build-up and loss of mass on a sensor chip optically.
Assay [2] concerns the target T2, biotinylated murine wildtype gp130 (D1-D6) with C-terminal biotin acceptor peptide and hexa-histidine tag (murine, UniProt Q00560 23-617, biotin on the C-terminal biotin acceptor peptide (in vitro, BirA)).
T2 chain: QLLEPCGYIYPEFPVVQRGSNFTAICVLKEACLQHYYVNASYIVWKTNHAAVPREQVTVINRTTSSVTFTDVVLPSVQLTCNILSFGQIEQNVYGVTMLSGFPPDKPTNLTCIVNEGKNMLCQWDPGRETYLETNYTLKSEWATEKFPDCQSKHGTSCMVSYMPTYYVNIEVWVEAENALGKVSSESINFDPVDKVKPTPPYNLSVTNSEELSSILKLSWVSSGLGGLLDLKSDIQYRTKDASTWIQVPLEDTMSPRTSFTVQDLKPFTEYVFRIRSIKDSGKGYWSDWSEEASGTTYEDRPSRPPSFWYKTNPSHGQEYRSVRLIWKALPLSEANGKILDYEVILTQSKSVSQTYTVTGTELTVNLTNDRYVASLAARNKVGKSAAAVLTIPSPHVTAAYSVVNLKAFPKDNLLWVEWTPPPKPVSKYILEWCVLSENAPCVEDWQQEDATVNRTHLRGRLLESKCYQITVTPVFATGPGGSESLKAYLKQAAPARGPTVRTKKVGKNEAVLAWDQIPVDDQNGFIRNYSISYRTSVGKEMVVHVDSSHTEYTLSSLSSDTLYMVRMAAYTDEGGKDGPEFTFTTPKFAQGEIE
The assay can be described thus: SPR.

Assay [3] has as its target T1, biotinylated murine gp130_(P496L) …. The assay is described as follows: SPR; equilibrium fit.
The target of assay [4] is T2, biotinylated murine wildtype gp130 …. The assay can be described thus: SPR; equilibrium fit.
Assay [5] has as its target T1, biotinylated murine gp130_(P496L) …. The assay is described as follows: SPR; kinetic fit.
Assay [6] addresses T2, biotinylated murine wildtype gp130 …. The assay is described as follows: SPR; kinetic fit.

B1: HypIL-11 (human IL-11 fused by a short linker to domains D2 and D3 of IL-11Rα, single chain) (other)
chain: PPARPVVSCQAADYENFSCTWSPSQISGLPTRYLTSYRKKTVLGADSQRRSPSTGPWPCPQDPLGAARCVVHGAEFWSQYRINVTEVNPLGASTRLLDVSLQSILRPDPPQGLRVESVPGYPRRLRASWTYPASWPCQPHFLLKFRLQYRPAQHPAWSTVEPAGLEEVITDAVAGLPHAVRVSARDFLDAGTWSTWSPEAWGTPSTPGPPPGPPRVSPDPRAELDSTVLLTRSLLADTRQLAAQLRDKFPADGDHNLDSLPTLAMSAGALGALQLPGVLTRLRADLLSYLRHVQWLRRAGGSSLKTLEPELGTLQARLDRLLRRLQLLMSRLALPQPPPDPPAPPLAPPSSAWGGIRAAHAILGGLHLTLDWAVRGLLLLKTRL
Regarding B1, the koff in assay [1] amounted to 0.0027 s⁻¹; in assay [2], 0.0023 s⁻¹. In addition, the Kd in assay [3] amounted to 11 nM; in assay [4] it was 8.5 nM; in assay [5] it was 1.8 nM; in assay [6], 1.45 nM.

The term koff denotes a measure of how fast the partners let go of each other. A low value points to slow dissociation. One may read the Kd as the concentration at which binding is half-saturated.

The values are drawn from paper PMC10920896 (2024).
